# Measurements published in patent publication US20250236682A1 (published 2025).
# Molecular target: human FcγRIIIA (176V isoform, R&D systems, 4325-FC) (human, UniProt P08637 17-208)
# Experiment: BLI
# human FcγRIIIA (176V isoform, R&D systems, 4325-FC), sequence (P08637 17-208 F176V): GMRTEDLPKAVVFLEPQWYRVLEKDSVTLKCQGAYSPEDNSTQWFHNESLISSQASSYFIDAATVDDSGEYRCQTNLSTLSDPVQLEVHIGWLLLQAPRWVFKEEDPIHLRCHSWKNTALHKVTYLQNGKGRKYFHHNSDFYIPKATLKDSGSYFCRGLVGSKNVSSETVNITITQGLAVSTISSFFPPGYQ
binder,measurement,value
H01DE4 (antibody) heavy: not shown light: not shown DKTHTCPPCPAPELLGGPDVFLFPPKPKDTLMISRTPEVTCVVVDVSHEDPEVKFNWYVDGVEVHNAKTKPREEQYNSTYRVVSVLTVLHQDWLNGKEYKCKVSNKALPAPEEKTISKAKGQPREPQVCTLPPSREEMTKNQVSLSCAVKGFYPSDIAVEWESNGQPENNYKTTPPVLDSDGSFFLVSKLTVDKSRWQQGNVFSCSVMHEALHNHYTQKSLSLSPGK,Kd,0.11 nM
